{
  "source": "paper PMC4278327",
  "about": "“Pathways driving the endocytosis of mutant and wild-type EGFR in cancer” (Oncoscience, 2014)",
  "binders": {"B1": {"name": "S2R^PGRMC1 (sigma-2 receptor / progesterone receptor membrane component 1) (natural protein)", "chain": "not shown", "notes": "PGRMC1 (progesterone receptor membrane component 1), endogenous in MDA-MB-435 human breast cancer cells, detected with the antibody PGR-UK1; source: endogenous, MDA-MB-435 lysate"}},
  "target": "T1, wild-type EGFR (epidermal growth factor receptor) (UniProt P00533 25-1210)",
  "T1 construct": "EGFR, wild type, expressed from the plasmid pcDNA3.1-EGFR; Probably the whole human receptor, expressed in cells that have no EGFR of their own; source: MDA-MB-435, transfected (pcDNA3.1-EGFR), in lysate",
  "assay": "co-IP; lysates of MDA-MB-435 cells transfected with EGFR plasmids, immunoprecipitated with the anti-EGFR antibody IMC-C225; western blot with the anti-S2R^PGRMC1 antibody PGR-UK1; representative of three independent experiments",
  "settings": "partners not purified",
  "data": [
    {"binder": "B1", "values": [
      {"measurement": "fold co-precipitated, wild-type EGFR against the EGFR-Δ747-749/A750P mutant", "result": 2.4, "unit": "fold"}
    ]}
  ]
}
